Positions count from the first letter of the chain named. “And” between values parts separate entries of the source, which are not always exact repeats. Identical values can stand only once.
T1: minor histocompatibility antigen HA-1, immunogenic H variant peptide on HLA-A*02:01 (human)
T1 peptide: VLHDDLLEA

B1: TCR AJ (TCR, V domains shown)
Valpha: EDQVTQSPEALRLQEGESSSLNCSYTVSGLRGLFWYRQDPGKGPEFLFTLYSAGEEKEKERLKATLTKKESFLHITAPKPEDSATYLCAVHSNAGGTSYGKLTFGQGTILTVHP
Vbeta: DAGVTQSPTHLIKTRGQHVTLRCSPISGHKSVSWYQQVLGQGPQFIFQYYEKEERGRGNFPDRFSARQFPNYSSELNVNALLLGDSALYLCASSADRGSPLHFGNGTRLTVT
B2: TCR AB (TCR, V domains shown)
Valpha: AQSVAQPEDQVNVAEGNPLTVKCTYSVSGNPYLFWYVQYPNRGLQFLLKYITGDNLVKGSYGFEAEFNKSQTSFHLKKPSALVSDSALYFCAVRVPTGGYQKVTFGIGTKLQVIP
Vbeta: DTGVSQNPRHKITKRGQNVTFRCDPISEHNRLYWYRQTLGQGPEFLTYFQNEAQLEKSRLLSDRFSAERPKGSFSTLEIQRTEQGDSAMYLCASKLTDTQYFGPGTRLTVL
B3: TCR Y (TCR, V domains shown)
Valpha: SQQGEEDPQALSIQEGENATMNCSYKTSINNLQWYRQNSGRGLVHLILIRSNEREKHSGRLRVTLDTSKKSSSLLITASRAADTASYFCATAYSGGGADGLTFGKGTHLIIQP
Vbeta: DTGVSQNPRHKITKRGQNVTFRCDPISEHNRLYWYRQTLGQGPEFLTYFQNEAQLEKSRLLSDRFSAERPKGSFSTLEIQRTEQGDSAMYLCASSLIRAEKLFFGSGTQLSVL
B4: TCR AD (TCR, V domains shown)
Valpha: SQQGEEDPQALSIQEGENATMNCSYKTSINNLQWYRQNSGRGLVHLILIRSNEREKHSGRLRVTLDTSKKSSSLLITASRAADTASYFCATVPTDYMYSGGGADGLTFGKGTHLIIQP
Vbeta: B3 Vbeta with I97V, A99L, E100D, K101G, L102Y, F103T, Q109R, S111T, L113V
B5: TCR AC (TCR, V domains shown)
Valpha: SQQGEEDPQALSIQEGENATMNCSYKTSINNLQWYRQNSGRGLVHLILIRSNEREKHSGRLRVTLDTSKKSSSLLITASRAADTASYFCAKNDMRFGAGTRLTVKP
Vbeta: B3 Vbeta with I97L, R98V, A99G, K101T, L102Q, F103Y, S106P, Q109R, S111L
B6: TCR Z (TCR, V domains shown)
Valpha: QQVMQIPQYQHVQEGEDFTTYCNSSTTLSNIQWYKQRPGGHPVFLIQLVKSGEVKKQKRLTFQFGEAKKNSSLHITATQTTDVGTYFCAGPKGNTPLVFGKGTRLSVIA
Vbeta: DTGVSQDPRHKITKRGQNVTFRCDPISEHNRLYWYRQTLGQGPEFLTYFQNEAQLEKSRLLSDRFSAERPKGSFSTLEIQRTEQGDSAMYLCASSLTVSYEQYFGPGTRLTVT
B7: TCR AA (TCR, V domains shown)
Valpha: QQQVKQSPQSLIVQKGGISIINCAYENTAFDYFPWYQQFPGKGPALLIAIRPDVSEKKEGRFTISFNKSAKQFSLHIMDSQPGDSATYFCAASSPGTYKYIFGTGTRLKVLA
Vbeta: B6 Vbeta with T97L, V98K, S99N, Y100T, Q102A, Y103F, P106Q, T113V
B8: TCR V (TCR, V domains shown)
V domain 1: AQTVTQSQPEMSVQEAETVTLSCTYDTSENNYYLFWYKQPPSRQMILVIRQEAYKQQNATENRFSVNFQKAAKSFSLKISDSQLGDTAMYFCALYSGAGSYQLTFGKGTKLSVIP
V domain 2: DTGVSQDPRHKITKRGQNVTFRCDPISEHNRLYWYRQTLGQGPEFLTYFQNEAQLEKSRLLSDRFSAERPKGSFSTLEIQRTEQGDSAMYLCASSLAAGMNTEAFFGQGTRLTVVE
B9: TCR AA (TCR, V domains shown)
V domain 1: B7 Valpha
V domain 2: DTGVSQDPRHKITKRGQNVTFRCDPISEHNRLYWYRQTLGQGPEFLTYFQNEAQLEKSRLLSDRFSAERPKGSFSTLEIQRTEQGDSAMYLCASSLLKNTEAFFGQGTRLTVVE
B10: TCR X (TCR, V domains shown)
V domain 1: GENVEQHPSTLSVQEGDSAVIKCTYSDSASNYFPWYKQELGKRPQLIIDIRSNVGEKKDQRIAVTLNKTAKHFSLHITETQPEDSAVYFCVVLGGAGNMLTFGGGTRLMVKP
V domain 2: B9 V domain 2 with L97T, K98V, N99S, T100D, E101G, A102Y, F103T, Q106S
B11: TCR AD (TCR, V domains shown)
V domain 1: B4 Valpha
V domain 2: B9 V domain 2 with D7N, L97V, K98R, N99L, T100D, E101G, A102Y, F103T, Q106S
B12: TCR Y (TCR, V domains shown)
V domain 1: B3 Valpha
V domain 2: DTGVSQNPRHKITKRGQNVTFRCDPISEHNRLYWYRQTLGQGPEFLTYFQNEAQLEKSRLLSDRFSAERPKGSFSTLEIQRTEQGDSAMYLCASSLIRAEKLFFGSGTQLSVLE
B13: TCR Z (TCR, V domains shown)
V domain 1: B6 Valpha
V domain 2: B9 V domain 2 with L97T, K98V, N99S, T100Y, A102Q, F103Y, Q106P, V113T
B14: TCR W (TCR, V domains shown)
V domain 1: AQSVAQPEDQVNVAEGNPLTVKCTYSVSGNPYLFWYVQYPNRGLQFLLKYITGDNLVKGSYGFEAEFNKSQTSFHLKKPSALVSDSALYFCAVRDPTSGTYKYIFGTGTRLKVLA
V domain 2: B9 V domain 2 with L97V, K98Q, N99G, T100N, A102Q, Q106P, V113L
B15: TCR AC (TCR, V domains shown)
V domain 1: B5 Valpha
V domain 2: B12 V domain 2 with I97L, R98V, A99G, K101T, L102Q, F103Y, S106P, Q109R, S111L
B16: TCR AJ (TCR, V domains shown)
V domain 1: B1 Valpha
V domain 2: DAGVTQSPTHLIKTRGQHVTLRCSPISGHKSVSWYQQVLGQGPQFIFQYYEKEERGRGNFPDRFSARQFPNYSSELNVNALLLGDSALYLCASSADRGSPLHFGNGTRLTVTE
B17: TCR AB (TCR, V domains shown)
V domain 1: B2 Valpha
V domain 2: DTGVSQNPRHKITKRGQNVTFRCDPISEHNRLYWYRQTLGQGPEFLTYFQNEAQLEKSRLLSDRFSAERPKGSFSTLEIQRTEQGDSAMYLCASKLTDTQYFGPGTRLTVLE
B18: TCR D (TCR, V domains shown)
V domain 1: B14 V domain 1 with D95A
V domain 2: B9 V domain 2 with L97V, K98S, N99G, T100N, A102Q, Q106P, V113L
B19: TCR E (TCR, V domains shown)
V domain 1: B14 V domain 1 with D95G
V domain 2: B9 V domain 2 with L97V, K98S, N99G, T100N, A102Q, Q106P, V113L
B20: TCR C (TCR, V domains shown)
V domain 1: KQEVTQIPAALSVPEGENLVLNCSFTDSAIYNLQWFRQDPGKGLTSLLLIQSSQREQTSGRLNASLDKSSGRSTLYIAASQPGDSATYLCAVRPRTSGTYKYIFGTGTRLKVLA
V domain 2: DTGVSQDPRHKITKRGQNVTFRCDPISEHNRLYWYRQTLGQGPEFLTYFQNEAQLEKSRLLSDRFSAERPKGSFSTLEIQRTEQGDSAMYLCASTELSGNTIYFGEGSWLTVVE
B21: TCR A (TCR, V domains shown)
V domain 1: AQSVAQPEDQVNVAEGNPLTVKCTYSVSGNPYLFWYVQYPNRGLQFLLKYITGDNLVKGSYGFEAEFNKSQTSFHLKKPSALVSDSALYFCAVRGGSYKYIFGTGTRLKVLA
V domain 2: DTGVSQDPRHKITKRGQNVTFRCDPISEHNRLYWYRQTLGQGPEFLTYFQNEAQLEKSRLLSDRFSAERPKGSFSTLEIQRTEQGDSAMYLCASTPGTVYNEQFFGPGTRLTVLE
B22: TCR F (TCR, V domains shown)
V domain 1: GENVEQHPSTLSVQEGDSAVIKCTYSDSASNYFPWYKQELGKRPQLIIDIRSNVGEKKDQRIAVTLNKTAKHFSLHITETQPEDSAVYFCAAHLTGGGNKLTFGTGTQLKVEL
V domain 2: B21 V domain 2 with T95S, P96S, G97R, T98A, V99G, Y100G, N101E, E102T, F104Y, T112L

Biological target: T1, minor histocompatibility antigen HA-1, …
Assay: multimer staining

**Q.** Does B1 bind?
**A.** recognises

**Q.** Does B2 bind?
**A.** recognises

**Q.** Does B3 bind?
**A.** recognises

**Q.** Does B4 bind?
**A.** recognises

**Q.** Does B5 bind?
**A.** recognises

**Q.** Does B6 bind?
**A.** recognises

**Q.** Does B7 bind?
**A.** recognises

biological target: T2, HA-1 “H” peptide (…) presented by HLA-A*02:01 on antigen presenting cells (human); assay: cell-based or functional assay

**Q.** For B8, which “EC50 values for CD69 Expression” value is on record?
**A.** 125 ng/mL

**Q.** B9 was tested. Which “EC50 values for CD69 Expression” value did it give?
**A.** 1.1 ng/mL

**Q.** Which “EC50 values for CD69 Expression” value does the source give for B10 here?
**A.** 23.6 ng/mL

**Q.** For B11, which “EC50 values for CD69 Expression” value is on record?
**A.** 4.9 ng/mL

**Q.** How did the “EC50 values for CD69 Expression” value turn out when B12 was run?
**A.** 10.8 ng/mL

**Q.** With B13 as the binder, how does the “EC50 values for CD69 Expression” value read?
**A.** 1.5 ng/mL

**Q.** How did the “EC50 values for CD69 Expression” value turn out when B14 was run?
**A.** 7.18 ng/mL

**Q.** With B15 as the binder, how does the “EC50 values for CD69 Expression” value read?
**A.** 0.9 ng/mL

**Q.** With B16 as the binder, how does the “EC50 values for CD69 Expression” value read?
**A.** 5 ng/mL

**Q.** For B17, which “EC50 values for CD69 Expression” value is on record?
**A.** 40.2 ng/mL

biological target: T2, HA-1 “H” peptide (…) presented by …; assay: cell-based or functional assay; remark: another data set of the same source

**Q.** How did the “EC50 for CD69 Expression” value turn out when B18 was run?
**A.** < 10 nM and < 10 ng/mL

**Q.** B19 was tested. Which “EC50 for CD69 Expression” value did it give?
**A.** < 10 ng/mL and < 10 nM

**Q.** How did the “EC50 for CD69 Expression” value turn out when B20 was run?
**A.** < 10 ng/mL and < 10 nM

**Q.** How did the “EC50 for CD69 Expression” value turn out when B21 was run?
**A.** < 10 ng/mL and < 10 nM

**Q.** For B22, which “EC50 for CD69 Expression” value is on record?
**A.** < 10 ng/mL and < 10 nM

Reference: US20240270813A1 (UNIVERSITY OF PITTSBURGH OF THE COMMONWEALTH SYSTEM OF …, published 2024)
